One block for each binder: values may come before it.
Experiments:
[1] = molecular target: T1, Amyloid precursor protein (APP), full length (human, UniProt P05067-4 18-695); experiment: anti-myc immunoprecipitation from γ30 cell lysates, western blot
T1 construct: whole, on cells; Used for transfected APP (HeLa), stably expressed APP (HEK293APP, γ30 cells) and endogenous APP of human brain homogenates; also called full length APP; mature, glycosylated APP
Experimental: (§1) FIG. 4 is photographs of western blots establishing that the first 102 amino acids of BRI2 are necessary to inhibit the efficient cleavage of C99 and that the same region is necessary for the binding of BRI2 to C99 of APP. […] HC indicates the heavy chain of myc antibody used in the immunoprecipitation.
(§2) Immunoprecipitation and western blot. Unless otherwise noted, all immunoprecipitation procedures were performed at 4° C. The transfected cells were lysed in Buffer A [20 mM Hepes/NaOH pH 7.4, 1 mM EDTA, 1 mM DTT, 150 mM NaCl, 0.5% (w/v) TritonX-100] containing 10% (v/v) Glycerol for 30 min, and the lysates were cleared at 20,000 g for 10 min. For FLAG immunoprecipitation, the cleared lysates were mixed with 20 μl of FLAG-M2 beads (Sigma) for 2 hours, and washed three times with Buffer A. The precipitates were boiled in 60 μl of 2×SDS sample buffer and subjected to western blot. For other immunoprecipitation, the cleared lysates were incubated with antibodies for one hour, and mixed with 20 μl of protein A/G beads (Pierce), washed and processed as above. Human brains (a generous gift of Dr. Peter Davies) were homogenized in Buffer A containing 10% (v/v) Glycerol using a Dounce homogenizer. The proteins were extracted overnight with the protein concentration at 5 mg/ml. Extracted proteins were cleared at 20,000 g for one hour. The supernatants were incubated with the indicated antibodies and protein A/G beads blocked with PBS containing 1% (w/v) BSA. Precipitants were washed and processed as described above.

[2] = molecular target: T2, C99, COOH-terminal fragment of 99 amino acids of APP (human, UniProt P05067 672-770); experiment: as above
T2 construct: domain: COOH-terminal fragment of 99 amino acids (C99); Produced in cells from APP by processing; also endogenous C99 of human brain
Experimental: as §1, §2

- binding result [1]: no binding
- binding result [2]: no binding
B1: myc-tagged BRI2 C-terminal deletion, first 93 amino acids (other)
chain: MVKVTFNSALAQKEAKKDEPKSGEEALIIPPDAVAVDCKDPDDVVPVGQRRAWCWCMCFGLAFMLAGVILGGAYLYKYFALQPDDVYYCGIKY
notes: Expressed in γ30 cells; also called BRI2 1-93; not shown: myc tag

- binding result [1]: no binding
- binding result [2]: no binding
B2: myc-tagged BRI2 C-terminal deletion, first 80 amino acids (other)
chain: MVKVTFNSALAQKEAKKDEPKSGEEALIIPPDAVAVDCKDPDDVVPVGQRRAWCWCMCFGLAFMLAGVILGGAYLYKYFA
notes: Expressed in γ30 cells; also called BRI2 1-80; not shown: myc tag
